Reference: patent US20250197488A1 (MABWELL SHANGHAI BIOSCIENCE, published 2025)

T1: human IL-11 (AAH12506.1, Pro22-Leu199) (human, UniProt P20809 22-199)
T1 construct: The range Pro22-Leu199 counts on AAH12506.1; The Octet runs say only 'human IL-11'; also called hIL-11
T1 chain: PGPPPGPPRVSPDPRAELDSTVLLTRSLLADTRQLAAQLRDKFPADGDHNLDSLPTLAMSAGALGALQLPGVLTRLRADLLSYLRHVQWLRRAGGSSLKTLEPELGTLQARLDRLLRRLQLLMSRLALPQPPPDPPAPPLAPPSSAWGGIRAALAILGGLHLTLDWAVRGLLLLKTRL

T2: IL-11 (Cat. 12225-HNCE, Sino Biological Inc.) (UniProt P20809 22-199, limits assumed)
T2 sequence (looked up): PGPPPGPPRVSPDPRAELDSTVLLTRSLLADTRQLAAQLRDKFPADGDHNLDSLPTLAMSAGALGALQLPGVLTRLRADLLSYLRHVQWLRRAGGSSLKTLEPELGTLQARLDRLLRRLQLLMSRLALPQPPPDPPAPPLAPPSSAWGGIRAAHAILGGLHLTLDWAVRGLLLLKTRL


What was measured:
[1] = target: T1, human IL-11 (AAH12506.1, Pro22-Leu199); assay: BLI (Octet), antibody captured, human IL-11 in solution
Method: The affinity of the murine antibodies purified from the hybridoma supernatants was determined using an Octet QKe System instrument from Fortebio Inc. with an anti-mouse IgG Fc Capture biosensor to capture the Fc fragments of the antibodies, for which an anti-IL-11 antibody named “3C6-mFc” recombinantly expressed was used at the same concentration as a positive control. Specifically, a hybridoma supernatant was diluted with HBS-EP+ buffer (GE), and was allowed to pass through the surface of AMC probes (Cat: 18-5088, PALL), and so the antibody in the hybridoma supernatant was captured on the surface of the probes; then, human IL-11 diluted in the HBS-EP+ buffer (300 nM) was used as a mobile phase to react with the antibody captured on the surface of the probes. Both the binding and the dissociating were conducted for 300 seconds. When the experiment was finished, data from which response values of blank controls had been deducted was fitted using a 1:1 Langmuir binding model by software, and then kinetic constants for antigen-antibody binding were calculated. Binding signals were detected on the Octet QKe System instrument with Hy5C2, Hy8C8, Hy16B5, Hy18A10, and Hy18H10.
The affinity of hz18A10 and hz8C8 was determined according to the method provided in Example 1 using AHC bioprobes for capturing human Fc fragment instead, with other conditions unchanged. A recombinantly expressed anti-IL-11 antibody 3C6-hFc was used at the same concentration as a positive control.
(§1) Then, light and heavy chain expression vectors for preparing mutant antibodies were constructed according to the method for preparing the recombinant antibodies provided in Example 4, using the mutant sequences shown in Table 3 which accordingly were linked with human IgG1 constant regions (SEQ ID NO. 13, and SEQ ID NO.14). Subsequently, the light chain and the heavy chain were reasonably matched and co-transfected into eukaryotic cells for transient expression, and then recombination protein samples of the mutant antibodies were obtained through affinity purification. The samples obtained were tested for affinity on Fortebio Octet, according to the method for measuring affinity provided in Example 1.

[2] = target: T2, IL-11 (Cat. 12225-HNCE, Sino Biological …); assay: cell-based or functional assay
[3] = target: T2, IL-11 (Cat. 12225-HNCE, Sino Biological …); assay: competition ELISA, IL-11/IL-11Rα/GP130 complex
Method: The activity of the recombinant murine anti-IL-11 antibodies for blocking the formation of IL-11/IL-11Rα/GP130 complex was analyzed via competition ELISA. IL-11Rα-His (NP_004503.1, Met1-Val363, C-terminus-6-His Tag) was firstly added into ELISA plates to be coated overnight. Next day, samples were prepared as follows. […] After co-incubating and washing, an HRP conjugated anti-human Fc secondary antibody was added to develop the color which was then detected.
as §1, with “1. Further, using the protocol provided in Example 3, hz8C8 and its affinity matured mutants were analyzed for their activity for blocking the formation of IL-11/IL-11Rα/GP130 complex.” for “1.”

Binder	Kd [1] [nM]	koff [1] [s⁻¹]	kon [1] [M⁻¹ s⁻¹]	Blocking activity (IC50), STAT3-luc reporter [2] [µg/mL]	IC50 [3] [µg/mL]
hz8C8-VHm1 + hz8C8-VLm7-m4 (antibody, human IgG1, kappa, V domains shown, human IgG1 constant regions) VH: EVQLVESGGGLVQPGGSLRLSCAASGFTFSSFGMHWVRQAPGKGLEWVAYITPGSNTIYYADTVKGRFTISRDNAKNSLYLQMNSLRAEDTAVYYCAREYYSYDEGFAYWGQGTLVTVSS VL: EIVLTQSPATLSLSPGERATLSCSVSDLIPSQYLHWYQQKPGQAPRLLIYRTSNRASGIPARFSGSGSGTDFTLTISSLEPEDFAVYYCQQGVDVPFTFGQGTKLEIKR	0.178	0.000178	1e+06	0.021	0.69
hz8C8-VHm1-m1 + hz8C8-VLm7 (antibody, human IgG1, kappa, V domains shown, human IgG1 constant regions) VH: EVQLVESGGGLVQPGGSLRLSCAASGFTFSSYGMHWVRQAPGKGLEWVAYITPGSNTIYYADTVKGRFTISRDNAKNSLYLQMNSLRAEDTAVYYCAREYYSYDEGFAYWGQGTLVTVSS VL: EIVLTQSPATLSLSPGERATLSCSVSDLIPSQYLHWYQQKPGQAPRLLIYRTSNLASGIPARFSGSGSGTDFTLTISSLEPEDFAVYYCQQGVDVPFTFGQGTKLEIKR	0.125	0.00013	1.04e+06	0.046	0.75
hz8C8-VHm1-m5 + hz8C8-VLm7-m2 (antibody, human IgG1, kappa, V domains shown, human IgG1 constant regions) VH: EVQLVESGGGLVQPGGSLRLSCAASGFTFSSFGMHWVRQAPGKGLEYVAYITPGSNTIYYADTVKGRFTISRDNAKNSLYLQMNSLRAEDTAVYYCAREYYSYDEGFAYWGQGTLVTVSS VL: EIVLTQSPATLSLSPGERATLSCSVSDLIPSQYLHWYQQKPGQAPRLLIYDASNLASGIPARFSGSGSGTDFTLTISSLEPEDFAVYYCQQGVDVPFTFGQGTKLEIKR	0.0594	4.05e-05	683000	0.194	0.52
hz8C8-VHm1 + hz8C8-VLm9 (antibody, human IgG1, kappa, V domains shown, human IgG1 constant regions) VH: EVQLVESGGGLVQPGGSLRLSCAASGFTFSSFGMHWVRQAPGKGLEWVAYITPGSNTIYYADTVKGRFTISRDNAKNSLYLQMNSLRAEDTAVYYCAREYYSYDEGFAYWGQGTLVTVSS VL: EIVLTQSPATLSLSPGERATLSCSVSDLIPSQYLAWYQQKPGQAPRLLIYRTSNLASGIPARFSGSGSGTDFTLTISSLEPEDFAVYYCQQGVDVPFTFGQGTKLEIKR	0.0354	3.45e-05	975000	0.012	0.72
hz8C8-VHm1-m3 + hz8C8-VLm7 (antibody, human IgG1, kappa, V domains shown, human IgG1 constant regions) VH: EVQLVESGGGLVQPGGSLRLSCAASGFTFSSFGMHWVRQAPGKGLEWVAYITPGSNTIYYADTVKGRFTISRDNAKNSLYLQMNSLRAEDTAVYYCAREYSSYDEGFAYWGQGTLVTVSS VL: EIVLTQSPATLSLSPGERATLSCSVSDLIPSQYLHWYQQKPGQAPRLLIYRTSNLASGIPARFSGSGSGTDFTLTISSLEPEDFAVYYCQQGVDVPFTFGQGTKLEIKR	0.0987	0.00011	1.12e+06	0.053	0.83
hz8C8-VHm1-m3 + hz8C8-VLm7-m1 (antibody, human IgG1, kappa, V domains shown, human IgG1 constant regions) VH: EVQLVESGGGLVQPGGSLRLSCAASGFTFSSFGMHWVRQAPGKGLEWVAYITPGSNTIYYADTVKGRFTISRDNAKNSLYLQMNSLRAEDTAVYYCAREYSSYDEGFAYWGQGTLVTVSS VL: EIVLTQSPATLSLSPGERATLSCSVSDLIPSQYLHWYQQKPGQAPRLLIYRASNLASGIPARFSGSGSGTDFTLTISSLEPEDFAVYYCQQGVDVPFTFGQGTKLEIKR	0.0609	5.81e-05	954000	0.01	0.55
hz8C8-VHm1-m2 + hz8C8-VLm7 (antibody, human IgG1, kappa, V domains shown, human IgG1 constant regions) VH: EVQLVESGGGLVQPGGSLRLSCAASGFTFSSFGMHWVRQAPGKGLEWVASITPGSNTIYYADTVKGRFTISRDNAKNSLYLQMNSLRAEDTAVYYCAREYYSYDEGFAYWGQGTLVTVSS VL: EIVLTQSPATLSLSPGERATLSCSVSDLIPSQYLHWYQQKPGQAPRLLIYRTSNLASGIPARFSGSGSGTDFTLTISSLEPEDFAVYYCQQGVDVPFTFGQGTKLEIKR	3.41	0.00355	1.04e+06	0.052	1.68

The next binders have a lower Kd [1] than those just listed; values first:

Kd [1] [nM]	koff [1] [s⁻¹]	kon [1] [M⁻¹ s⁻¹]	Blocking activity (IC50), STAT3-luc reporter [2] [µg/mL]	IC50 [3] [µg/mL]	Binder
< 0.001	< 1e-07	879000	0.004	0.79	hz8C8-VHm1-m4 + hz8C8-VLm7-m2 (antibody, human IgG1, kappa, V domains shown, human IgG1 constant regions) VH: EVQLVESGGGLVQPGGSLRLSCAASGFTFSSFGMHWVRQAPGKGLEWVSYITPGSNTIYYADTVKGRFTISRDNAKNSLYLQMNSLRAEDTAVYYCAREYYSYDEGFAYWGQGTLVTVSS VL: EIVLTQSPATLSLSPGERATLSCSVSDLIPSQYLHWYQQKPGQAPRLLIYDASNLASGIPARFSGSGSGTDFTLTISSLEPEDFAVYYCQQGVDVPFTFGQGTKLEIKR
< 0.001	< 1e-07	945000	0.009	0.67	hz8C8-VHm1-m3 + hz8C8-VLm7-m2 (antibody, human IgG1, kappa, V domains shown, human IgG1 constant regions) VH: EVQLVESGGGLVQPGGSLRLSCAASGFTFSSFGMHWVRQAPGKGLEWVAYITPGSNTIYYADTVKGRFTISRDNAKNSLYLQMNSLRAEDTAVYYCAREYSSYDEGFAYWGQGTLVTVSS VL: EIVLTQSPATLSLSPGERATLSCSVSDLIPSQYLHWYQQKPGQAPRLLIYDASNLASGIPARFSGSGSGTDFTLTISSLEPEDFAVYYCQQGVDVPFTFGQGTKLEIKR
0.0313	2.97e-05	948000	0.01	0.7	hz8C8-VHm1 + hz8C8-VLm8 (antibody, human IgG1, kappa, V domains shown, human IgG1 constant regions) VH: EVQLVESGGGLVQPGGSLRLSCAASGFTFSSFGMHWVRQAPGKGLEWVAYITPGSNTIYYADTVKGRFTISRDNAKNSLYLQMNSLRAEDTAVYYCAREYYSYDEGFAYWGQGTLVTVSS VL: EIVLTQSPATLSLSPGERATLSCSVSDLIPSQYLSWYQQKPGQAPRLLIYRTSNLASGIPARFSGSGSGTDFTLTISSLEPEDFAVYYCQQGVDVPFTFGQGTKLEIKR
< 0.001	< 1e-07	972000	0.022	0.78	hz8C8-VHm1-m3 + hz8C8-VLm7-m3 (antibody, human IgG1, kappa, V domains shown, human IgG1 constant regions) VH: EVQLVESGGGLVQPGGSLRLSCAASGFTFSSFGMHWVRQAPGKGLEWVAYITPGSNTIYYADTVKGRFTISRDNAKNSLYLQMNSLRAEDTAVYYCAREYSSYDEGFAYWGQGTLVTVSS VL: EIVLTQSPATLSLSPGERATLSCSVSDLIPSQYLHWYQQKPGQAPRLLIYGASNLASGIPARFSGSGSGTDFTLTISSLEPEDFAVYYCQQGVDVPFTFGQGTKLEIKR
< 0.001	< 1e-07	901000	0.02	0.47	hz8C8-VHm1-m3 + hz8C8-VLm7-m4 (antibody, human IgG1, kappa, V domains shown, human IgG1 constant regions) VH: EVQLVESGGGLVQPGGSLRLSCAASGFTFSSFGMHWVRQAPGKGLEWVAYITPGSNTIYYADTVKGRFTISRDNAKNSLYLQMNSLRAEDTAVYYCAREYSSYDEGFAYWGQGTLVTVSS VL: EIVLTQSPATLSLSPGERATLSCSVSDLIPSQYLHWYQQKPGQAPRLLIYRTSNRASGIPARFSGSGSGTDFTLTISSLEPEDFAVYYCQQGVDVPFTFGQGTKLEIKR
